The text below walks through data of patent US20240132578A1.

Bounds are passed on as bounds.

What all share (assay): cell-based or functional assay
The target of assay [1] is HIV-1 envelope glycoprotein (Env) of isolate MG RM-A-007, subtype A (HIV-1).
Assay [2] concerns the target HIV-1 envelope glycoprotein (Env) of isolate PVO.4, on pseudovirus (HIV-1).
Assay [3] deals with HIV-1 envelope glycoprotein (Env) of isolate MG RM-A-012, subtype A (HIV-1).
The target in assay [4] is HIV-1 Env of isolate MGRM-AG-001 (pseudovirus) (HIV-1).
Assay [5] concerns the target HIV-1 Env of isolate MGRM-AE-008 (pseudovirus) (HIV-1).
Assay [6] concerns the target HIV-1 envelope glycoprotein (Env) of isolate MGRM-AE-001, subtype AE (HIV-1).
For assay [7], the target named is HIV-1 JR-CSF Env Q422A (HIV-1 (isolate JR-CSF)) (UniProt P20871).
In assay [8] the target is HIV-1 envelope glycoprotein (Env) of isolate 94 KE 105, subtype AC (HIV-1).
Assay [9] concerns the target HIV-1 Env of isolate MGRM-AG-008 (pseudovirus) (HIV-1).
In assay [10] the target is HIV-1 JR-CSF Env L416A (HIV-1 (isolate JR-CSF)) (UniProt P20871).
Assay [11] concerns the target HIV-1 envelope glycoprotein (Env) of isolate MGRM-AE-002, subtype AE (HIV-1).
Assay [12] concerns the target aMLV envelope protein on pseudovirus (negative control).
The target of assay [13] is HIV-1 envelope glycoprotein (Env) of isolate 92UG031, subtype A (HIV-1).
The target of assay [14] is HIV-1 Env of pseudovirus isolate MGRM-C-009 (clade C) (HIV-1).
Assay [15] has as its target HIV-1 Env of isolate MGRM-A-003 (pseudovirus) (HIV-1).
The target in assay [16] is HIV-1 Env of pseudovirus isolate MGRM-C-010 (clade C) (HIV-1).
In assay [17] the target is HIV-1 Env of isolate MGRM-Chronic-B-004 (HIV-1).
In assay [18] the target is HIV-1 Env of isolate MGRM-AG-009 (subtype AG) (HIV-1).
The target of assay [19] is HIV-1 Env of isolate MGRM-C-002 (HIV-1).
Assay [20] concerns the target HIV-1 Env of pseudovirus isolate MGRM-C-007 (clade C) (HIV-1).
Assay [21] has as its target HIV-1 Env of isolate MGRM-G-006 (subtype G) (HIV-1).
For assay [22], the target named is HIV-1 Env of isolate MGRM-AE-003 (pseudovirus) (HIV-1).
Assay [23] has as its target HIV-1 Env of isolate MGRM-G-009 (subtype G) (HIV-1).
Assay [24] addresses HIV-1 envelope glycoprotein (Env) of isolate 93IN905 (HIV-1).
Assay [25] has as its target HIV-1 Env of isolate 92UG031 (clade A pseudovirus) (HIV-1).
Assay [26] concerns the target HIV-1 envelope glycoprotein (Env) of isolate MGRM-C-017 (HIV-1).
The target in assay [27] is HIV-1 Env of isolate MGRM-Chronic-B-008, clade B (HIV-1).
The target of assay [28] is HIV-1 Env of isolate 92RW020 (clade A pseudovirus) (HIV-1).
For assay [29], the target named is HIV-1 Env of pseudovirus MGRM-F1-018 (clade F) (HIV-1).
The target of assay [30] is HIV-1 MGRM-AG-011 Env (pseudovirus) (HIV-1).
Assay [31] addresses HIV-1 Env of pseudovirus MGRM-F1-020 (clade F) (HIV-1).

As for 4858_P08 (PGT-123) (antibody), the IC50, pseudovirus neutralization in [1] was more than 50 µg/mL; in [2], 0.105 µg/mL; in [3], 0.192 µg/mL; in assay [6] it was more than 50 µg/mL; in assay [8] it was 0.024 µg/mL; in [11] it was more than 50 µg/mL. Besides, in [13], the IC50, pseudovirus neutralization is more than 50 µg/mL. Further, the IC50 (µg/mL), pseudovirus neutralization in assay [4] was 2.51 µg/mL; in assay [5], more than 50 µg/mL; in assay [9], 19.2 µg/mL. In addition, the Fold IC50 increase relative to wild-type (pseudovirus neutralization) in assay [7] was determined as 0.8 fold; in [10] it was 0.9 fold. In assay [12], this substance had an IC50 (ug/mL), pseudovirus neutralization of more than 10 µg/mL.
As for 4838_L06 (PGT-121) (antibody), the IC50, pseudovirus neutralization is more than 50 µg/mL in [1]; 0.137 µg/mL in assay [2]; 0.092 µg/mL in assay [3]; more than 50 µg/mL in assay [6]; 0.029 µg/mL in [8]; more than 50 µg/mL in assay [11]. For the same substance, the IC50, pseudovirus neutralization in assay [13] was more than 50 µg/mL. In [12], the IC50 (ug/mL), pseudovirus neutralization was more than 10 µg/mL.
On to 5145_B14 (PGT-127) (antibody), for which the IC50, pseudovirus neutralization in [1] is more than 50 µg/mL; in assay [2], 0.164 µg/mL; in [3] it was 0.105 µg/mL; in assay [6], more than 50 µg/mL; in assay [8], 0.023 µg/mL; in [11], more than 50 µg/mL. This substance displayed an IC50, pseudovirus neutralization in assay [13] of more than 50 µg/mL. Moreover, the IC50 (µg/mL), pseudovirus neutralization in assay [4], in [5] and in assay [9] was more than 50 µg/mL in each case. The Fold IC50 increase relative to wild-type (pseudovirus neutralization) came to 0.1 fold in assay [7] and 1 fold in [10].
As for 5136_H01 (PGT-131) (antibody), the IC50, pseudovirus neutralization in assay [14], in assay [16], in assay [18] and in assay [20] was more than 50 µg/mL in each case. The IC50 (µg/mL), pseudovirus neutralization in assay [15] is more than 50 µg/mL; in [17], 0.04 µg/mL; in [19], more than 50 µg/mL. Moreover, the figures for the Fold IC50 increase relative to wild-type (pseudovirus neutralization) in [7] and in assay [10] were 1.9 fold and 1 fold, respectively.
In the case of 5114_A19 (PGT-128) (antibody), the IC50, pseudovirus neutralization in [14] was more than 50 µg/mL; in [16], more than 50 µg/mL; in assay [18], 0.021 µg/mL; in [20], 0.111 µg/mL. The figures for the IC50 (µg/mL), pseudovirus neutralization in assay [15], in assay [17] and in assay [19] were more than 50 µg/mL, 0.009 µg/mL and 0.019 µg/mL, respectively. Further, the Fold IC50 increase relative to wild-type (pseudovirus neutralization) worked out at 0.2 fold in assay [7] and 1.1 fold in assay [10].
Regarding PGV04 (antibody), the IC50 (µg/mL), pseudovirus neutralization is 0.218 µg/mL in assay [4]; 1.51 µg/mL in assay [5]; 0.083 µg/mL in assay [21]; 2.48 µg/mL in assay [9]; 6.4 µg/mL in assay [22]; 0.043 µg/mL in assay [23].
Turning to 4877_D15 (PGT-122) (antibody), the IC50, pseudovirus neutralization is more than 50 µg/mL in assay [1]; 0.689 µg/mL in assay [2]; 0.257 µg/mL in [3]; more than 50 µg/mL in [6]; 0.056 µg/mL in [8]; more than 50 µg/mL in [11]. This substance also had an IC50, pseudovirus neutralization in [13] of more than 50 µg/mL. The IC50 (µg/mL), pseudovirus neutralization in assay [4] is 14.5 µg/mL; in [5] it was more than 50 µg/mL; in [9], more than 50 µg/mL. For the same substance, the IC50 (ug/mL), pseudovirus neutralization in [12] was more than 10 µg/mL.
Turning to 5345_I01 (PGT-137) (antibody), the IC50, pseudovirus neutralization in [14], in [16], in assay [18] and in assay [20] was more than 50 µg/mL in each case. Also, the values for the IC50 (µg/mL), pseudovirus neutralization in assay [15], in assay [17] and in assay [19] were more than 50 µg/mL, more than 50 µg/mL and 8.03 µg/mL, respectively.
Take 5343_B08 (PGT-135) (antibody): the IC50, pseudovirus neutralization in [14], in [16], in assay [18] and in [20] was more than 50 µg/mL each time. Also, the IC50 (µg/mL), pseudovirus neutralization in [15], in assay [17] and in [19] was more than 50 µg/mL each time. Also, the Fold IC50 increase relative to wild-type (pseudovirus neutralization) in assay [7] is 0.8 fold; in assay [10], 1.2 fold. In [12], the IC50 (ug/mL), pseudovirus neutralization was more than 10 µg/mL.
As for 5329_C19 (PGT-136) (antibody), the IC50, pseudovirus neutralization in [14], in [16], in assay [18] and in [20] was more than 50 µg/mL in each case. Besides, the IC50 (µg/mL), pseudovirus neutralization in assay [15], in assay [17] and in assay [19] was more than 50 µg/mL each time. This substance also gave an IC50 (ug/mL), pseudovirus neutralization in [12] of more than 10 µg/mL.
Take 5141_B17 (PGT-126) (antibody): the IC50, pseudovirus neutralization in [1] is more than 50 µg/mL; in [2] it was 0.017 µg/mL; in assay [3] it was 0.097 µg/mL; in [6], 9.68 µg/mL; in [8], 0.006 µg/mL; in assay [11], more than 50 µg/mL. Further, the IC50, pseudovirus neutralization in [13] is more than 50 µg/mL. Further, the IC50 (µg/mL), pseudovirus neutralization in assay [4], in [5] and in [9] was more than 50 µg/mL throughout. The results for the Fold IC50 increase relative to wild-type (pseudovirus neutralization) in assay [7] and in assay [10] were 1.1 fold and 0.8 fold, respectively. Moreover, the IC50 (ug/mL), pseudovirus neutralization in [12] was more than 10 µg/mL. In assay [24], this substance had a Neutralization IC80 of 0.0676 µg/mL. This substance showed a Neutralization IC90 in [24] of 0.14 µg/mL. The substance further yielded a Neutralization IC95 in assay [24] of 0.275 µg/mL. The substance further gave a neutralization IC50 in assay [24] of 0.0194 µg/mL.
As for 5123_A06 (PGT-125) (antibody), the IC50, pseudovirus neutralization in assay [1] is more than 50 µg/mL; in [2], 0.042 µg/mL; in [3] it was 0.177 µg/mL; in assay [6], 2.95 µg/mL; in [8], 0.004 µg/mL; in assay [11], more than 50 µg/mL. Moreover, the IC50, pseudovirus neutralization in [13] is more than 50 µg/mL. In addition, the IC50 (µg/mL), pseudovirus neutralization in assay [4], in assay [5] and in assay [9] was more than 50 µg/mL throughout. In addition, the Fold IC50 increase relative to wild-type (pseudovirus neutralization) in assay [7] came out at 1.2 fold; in assay [10], 0.8 fold. The substance further showed an IC50 (ug/mL), pseudovirus neutralization in [12] of more than 10 µg/mL.
Regarding 1496_C09 (PG9) (TCN-109) (antibody), the IC50 (µg/ml), pseudovirus neutralization in assay [25] amounted to 3.08 µg/mL; in assay [26] it was 1.52 µg/mL; in assay [27], 6.66 µg/mL; in [28] it was 0.08 µg/mL; in assay [30] it was 0.01 µg/mL; in assay [24], 0.03 µg/mL. Further, the IC50 (µg/mL), pseudovirus neutralization in assay [4] worked out at 17.1 µg/mL; in assay [5] it was 31.5 µg/mL; in assay [21] it was 1.98 µg/mL; in assay [22], 0.044 µg/mL; in assay [23], 10.7 µg/mL. For the same substance, the IC50 worked out at 0.03 µg/mL in [29] and 4.55 µg/mL in [31].
